Laboratory results taken from publication PMC2198872.

Target: actin (filamentous actin from chicken pectoralis) (chicken) (UniProt P68139)
Experiment: laser trap

Substance | displacement duration, step 1 of double step events [ms] | displacement duration, step 2 of double step events [ms] | displacement duration (t on, time attached to actin) [ms]
baculovirus-expressed (-)insert isoform of smooth muscle myosin HMM (from UniProt P10587 1-1979) (complex) | 468 | 400 | –
M5HMM containing only bound calmodulin (from UniProt Q99104 1-1098; P0DP23 1-149) (complex) | – | – | 120
M5HMM(tag) with calmodulin (from UniProt Q99104 1-1098; P0DP23 1-149) (complex) | – | – | 100
